We go through one molecule from US20210196823A1, “Methods of Treating Metabolic Disease” (Pfizer Inc., priority 2018, published 2021).

Entries after “also recorded” stand apart in the source; their conditions may differ.

Type in all cases: cell-based
Assay [1] relates to SMAD1/5/8 phosphorylation in Huh7 cells. The experiment in a line: Western blot of SMAD1/5/8 phosphorylation in Huh7 cells. The protocol: (d) ERFE effects on BMP/SMAD signalling measured by SMAD 1/5/8 phosphorylation: To confirm the suppression of BMP/SMAD signalling, we analysed phosphorylation of SMAD1/5/8, required to transduce the signal leading to HAMP upregulation. Analysis was carried out by Western blot according to the following methodology: Cells were lysed at 4° C. using RIPA buffer (Thermo Scientific) containing protease/phosphatase inhibitor (Cell Signalling). Lysates were denatured at 95° C. and separated on a 10% SDS polyacrylamide gel (Bio-Rad), following the manufacturer's instruction. Protein sizes were estimated by using the Novex Sharp Pre-Stained Protein Ladder (life technologies). Protein was transferred to a nitrocellulose membrane, then blocked with milk/TBS for 1 h. Antibodies used were anti-P-SMAD 1/5 (S463s/465)/9(S465/467) (Cell signalling 13820S 1:500), anti-Smad1 (Cell Signalling 6944S 1:500), anti-β-actin-peroxidase (Sigma A3854 1:10 000), and Anti-rabbit IgG HRP conjugated (RnD systems HAP008 1:5000). […] In this case Huh7 cells were treated with mouse ERFE (10 μg/ml) or BMP6 and LDN, a small molecule inhibitor of BMPs, (100 nM), alone or in combination, for 30 min and pSMAD/SMAD ratios values were calculated by densitometry. Erythroferrone caused a decrease in SMAD phosphorylation relative to non-treated cells (FIG. 3D).
A general note: A western blot detects proteins with antibodies after separation by electrophoresis.

For assay [2], the system named is Huh7 cells. Description: HAMP and ID1 qRT-PCR in Huh7 cells treated with BMPs with or without mouse ERFE. The settings on record: 2 nM BMP 2/6, BMP5, BMP6 or BMP7 + 10 μg/ml mouse ERFE, 6 h, serum-free media. Here is the method: (§1) (b) Gene expression microarray: Microarray analysis of Huh7 cells treated with mouse or human erythroferrone was carried out to test the activity of erythroferrone on the BMP/SMAD signalling pathway. Generally cell treatments were carried out according to the following protocol: Huh7 and HepG2 were cultured in Dulbecco's Modified Eagle's Medium—High Glucose (Sigma), supplemented with 10% Fetal Bovine Serum (Sigma), 1% Penicillin-Streptomycin (Sigma) and 1% L-Glutamine (Sigma), unless otherwise indicated. Cells were plated 24 h before treatments in 24-well (gene expression analysis) or 12-well (protein analysis) cell culture plates. At the time of treatment, cells were washed with PBS and fresh media was added.
(c) RNA isolation, cDNA synthesis and qRT-PCR: Suppression of several BMP-target genes: HAMP, ID1, ID3, SMAD6 and SMAD7 was further confirmed by qRT-PCR. Cells were lysed and RNA was isolated using the RNeasy Plus kit (Qiagen), followed by RNA quantification and quality assessment using Nanodrop (Thermo Fisher). cDNA was synthesized using the High Capacity RNA-to-cDNA kit (Applied Biosystems). Gene expression was assessed using quantitative real-time PCR with Taqman Gene Expression Master Mix and inventoried Taqman Gene expression assays (Applied Biosystems) specific for the genes of interest according to the manufacturer's instructions. […]
A general note: In qPCR the cycle at which signal appears reflects the starting amount.

Assay [3] concerns Huh7 cells. Description: qRT-PCR of BMP/SMAD target genes in Huh7 cells treated with ERFE. The settings on record: Huh7, mouse ERFE 10 μg/ml vs vehicle. The protocol:
as §1
(c) RNA isolation, cDNA synthesis and qRT-PCR: Suppression of several BMP-target genes: HAMP, ID1, ID3, SMAD6 and SMAD7 was further confirmed by qRT-PCR. Cells were lysed and RNA was isolated using the RNeasy Plus kit (Qiagen), followed by RNA quantification and quality assessment using Nanodrop (Thermo Fisher). cDNA was synthesized using the High Capacity RNA-to-cDNA kit (Applied Biosystems). Gene expression was assessed using quantitative real-time PCR with Taqman Gene Expression Master Mix and inventoried Taqman Gene expression assays (Applied Biosystems) specific for the genes of interest according to the manufacturer's instructions.

The subject of assay [4] is Huh7 cells. The experiment in a line: Gene expression microarray of Huh7 cells treated with ERFE. Particulars: Huh7, ERFE 10 μg/ml, 24 h. The protocol: as §1
For the purposes of gene expression microarray analysis RNA was isolated from the Huh7 cells using RNeasy Plus kit (Qiagen), this was followed by RNA quantification and quality assessment using a 2100 Bioanalyzer (Agilent). RNA was converted into biotin labelled cRNA for hybridization and gene expression analysed using the Human HT12v4.0 Expression Beadchip (Illumina) and the Illuminas's iScan Scanner. Raw data was normalised using the lumi package (Bioconductor) and compared using LIMMA (Bioconductor). Statistical significance was set at p<0.05.

B1: mouse ERFE: recombinant mouse erythroferrone (SEQ ID NO: 2); monoFC-muErfe is a monomeric FC murine ERFE fusion (protein, listed as Mus musculus)
chain: MASRRPVGARTLLACASLLAAMGLGVPESAEPVGTHARPQPPGAELPAPPANSPPEPIAHAHSVDPRDAWMLFVKQSDKGINSKRRSKARRLKLGLPGPPGPPGPQGPPGPFIPSEVLLKEFQLLLKGAVRQRESHLEHCTRDLPASGSPSRVPAAQELDSQDPGALLALLAATLAQGPRAPRVEAAFHCRLRRDVQVDRRALHELGIYYLPEVEGAFHRGPGLNLTSGQYTAPVAGFYALAATLHVALTEQPRKGPTRPRDRLRLLICIQSLCQHNASLETVMGLENSSELFISVNGVLYLQAGHYSVFLDNASGSSLTVRSGSHFSAILLGL
Turning to B1, the “SMAD phosphorylation after BMP6 stimulation” value in assay [1] (Huh7, mouse ERFE 10 μg/ml with BMP6, 30 min) is “blunted the increase”. Also, in assay [1] (Huh7, mouse ERFE 10 μg/ml, 30 min, baseline), the “SMAD 1/5/8 phosphorylation relative to non-treated cells” value is “decrease”. For the same molecule, the “HAMP and ID1 expression / BMP/SMAD signalling in BMP-treated Huh7 cells” value in assay [2] is “suppresses; also recorded: suppression”. Further, in assay [3], the “expression of BMP-target genes HAMP, ID1, ID3, SMAD6 and SMAD7” value is given as “Suppression”; the “expression of FGA (JAK/STAT3 target gene)” value was “no changes”. The “target genes of the JAK/STAT3 pathway” value in assay [4] is “No changes”. Besides, the “number of suppressed genes” value in assay [4] (5 are BMP/SMAD targets ID1, ID2, ID3, SMAD6, HAMP) was determined as 12.
